Results taken from PMC8766458, “Deciphering the mechanism of processive ssDNA digestion by the Dna2-RPA ensemble” (Nature Communications, 2022).

Tests used:
Details in all cases: both partners purified
[1] = target: T1, dna2-D657A (nuclease-dead Dna2) (S. cerevisiae, UniProt P38859 1-1522, D657A); experiment: native gel or EMSA; ternary complex of dna2-D657A variants (20 nM), Rfa1 truncations or mutants (20 nM) and 5 nM dT(20) ssDNA; 150 mM KCl, 30 °C, 4% native gel
T1 construct: Dna2, Saccharomyces cerevisiae, nuclease-dead version; Purified as the other Dna2 variants; FLAG tag used for quantum-dot labelling in DNA Curtains; also called dna2-D657A mutant; source: over-expressed in yeast, purified (Ni-NTA, anti-FLAG-M2 resin)

[2] = target: T2, RPA–Y193A–GFP (RPA complex harboring rfa1–Y193A) (yeast (S. cerevisiae), UniProt P22336 1-621; P26754 1-273; P26755 1-122, Y193A); experiment: single-molecule DNA Curtains (TIRF microscopy); quantum-dot labelled Dna2 variants on ssDNA coated with RPA–GFP variants; NaCl concentration of these results not told in the text (conditions in Supplementary Table 1)
T2 construct: Rfa1, large subunit of yeast RPA, with Y193A in the linker between Rfa1-N and DBD-A; Rfa2, middle subunit of yeast RPA; Rfa3, small subunit of yeast RPA; GFP is fused to one subunit and kept in the assay; preparation not described; also called RPA complex harboring rfa1–Y193A mutant; copies: + +

RPA–GFP = target: T3, RPA–GFP (yeast (S. cerevisiae), UniProt P22336 1-621; P26754 1-273; P26755 1-122); experiment: as above
T3 construct: Rfa1, large subunit of yeast RPA; Rfa2, middle subunit of yeast RPA; Rfa3, small subunit of yeast RPA; GFP is fused to one subunit and kept in the assay (it is imaged); Coats the ssDNA of the DNA Curtains; also called RPA (green) on ssDNA; copies: + +
T3 sequence (P26754 whole entry, chain 2 of 2, the tested form may be a part): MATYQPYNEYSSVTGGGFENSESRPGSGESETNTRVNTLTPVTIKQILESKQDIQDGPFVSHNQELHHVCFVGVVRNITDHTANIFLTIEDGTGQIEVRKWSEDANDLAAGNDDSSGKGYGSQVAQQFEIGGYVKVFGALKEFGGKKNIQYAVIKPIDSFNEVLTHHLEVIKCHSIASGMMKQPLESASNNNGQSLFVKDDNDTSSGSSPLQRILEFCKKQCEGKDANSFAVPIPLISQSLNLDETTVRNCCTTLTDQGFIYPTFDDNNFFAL
T3 sequence (P26755 whole entry, chain 3 of 2, the tested form may be a part): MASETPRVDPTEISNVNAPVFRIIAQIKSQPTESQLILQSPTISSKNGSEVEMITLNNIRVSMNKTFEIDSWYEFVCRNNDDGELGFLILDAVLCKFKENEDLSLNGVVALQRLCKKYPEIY

Row | Binder | binding result [1] | other results
1 | Rfa1-N-DBD-A/B (Rfa1–NAB, amino acid 1–435) (domain or fragment, yeast (S. cerevisiae), UniProt P22336 1-435, looked up, Rfa1 of yeast RPA, residues 1-435 (N, DBD-A and DBD-B domains); The 6xHis tag can optionally be removed by TEV protease; also called NAB polypeptide; pHis–Rfa1 1–435; source: E. coli BL21 codon plus, purified (Ni-NTA, Superdex 200)) MSSVQLSRGDFHSIFTNKQRYDNPTGGVYQVYNTRKSDGANSNRKNLIMISDGIYHMKALLRNQAASKFQSMELQRGDIIRVIIAEPAIVRERKKYVLLVDDFELVQSRADMVNQTSTFLDNYFSEHPNETLKDEDITDSGNVANQTNASNAGVPDMLHSNSNLNANERKFANENPNSQKTRPIFAIEQLSPYQNVWTIKARVSYKGEIKTWHNQRGDGKLFNVNFLDTSGEIRATAFNDFATKFNEILQEGKVYYVSKAKLQPAKPQFTNLTHPYELNLDRDTVIEECFDESNVPKTHFNFIKLDAIQNQEVNSNVDVLGIIQTINPHFELTSRAGKKFDRRDITIVDDSGFSISVGLWNQQALDFNLPEGSVAAIKGVRVTDFGGKSLSMGFSSTLIPNPEIPEAYALKGWYDSKGRNANFITLKQEPGMGGQ | binds | –
2 | rfa1–NAB–K45E (pHis-Rfa1 1-435 K45E) (domain or fragment, yeast (S. cerevisiae), UniProt P22336 1-435, looked up, Rfa1 of yeast RPA, residues 1-435, charge reversal in the basic cleft of Rfa1-N; also called rfa1–t11; rfa1–K45E; source: E. coli BL21 codon plus, purified (Ni-NTA, Superdex 200)) MSSVQLSRGDFHSIFTNKQRYDNPTGGVYQVYNTRKSDGANSNRENLIMISDGIYHMKALLRNQAASKFQSMELQRGDIIRVIIAEPAIVRERKKYVLLVDDFELVQSRADMVNQTSTFLDNYFSEHPNETLKDEDITDSGNVANQTNASNAGVPDMLHSNSNLNANERKFANENPNSQKTRPIFAIEQLSPYQNVWTIKARVSYKGEIKTWHNQRGDGKLFNVNFLDTSGEIRATAFNDFATKFNEILQEGKVYYVSKAKLQPAKPQFTNLTHPYELNLDRDTVIEECFDESNVPKTHFNFIKLDAIQNQEVNSNVDVLGIIQTINPHFELTSRAGKKFDRRDITIVDDSGFSISVGLWNQQALDFNLPEGSVAAIKGVRVTDFGGKSLSMGFSSTLIPNPEIPEAYALKGWYDSKGRNANFITLKQEPGMGGQ | binds | –
3 | Dna2 (wild type, FLAG-His6-tagged) (enzyme, S. cerevisiae, UniProt P38859 1-1522, looked up, Dna2 nuclease-helicase, Saccharomyces cerevisiae, wild type; Wild-type protein; In DNA Curtains it was labelled with anti-FLAG quantum dots; in MST with the His-tag labelling kit RED-tris-NTA; also called wild-type Dna2; (His)6-tagged Dna2; source: over-expressed in yeast, purified (Ni-NTA, anti-FLAG-M2 resin)) MPGTPQKNKRSASISVSPAKKTEEKEIIQNDSKAILSKQTKRKKKYAFAPINNLNGKNTKVSNASVLKSIAVSQVRNTSRTKDINKAVSKSVKQLPNSQVKPKREMSNLSRHHDFTQDEDGPMEEVIWKYSPLQRDMSDKTTSAAEYSDDYEDVQNPSSTPIVPNRLKTVLSFTNIQVPNADVNQLIQENGNEQVRPKPAEISTRESLRNIDDILDDIEGDLTIKPTITKFSDLPSSPIKAPNVEKKAEVNAEEVDKMDSTGDSNDGDDSLIDILTQKYVEKRKSESQITIQGNTNQKSGAQESCGKNDNTKSRGEIEDHENVDNQAKTGNAFYENEEDSNCQRIKKNEKIEYNSSDEFSDDSLIELLNETQTQVEPNTIEQDLDKVEKMVSDDLRIATDSTLSAYALRAKSGAPRDGVVRLVIVSLRSVELPKIGTQKILECIDGKGEQSSVVVRHPWVYLEFEVGDVIHIIEGKNIENKRLLSDDKNPKTQLANDNLLVLNPDVLFSATSVGSSVGCLRRSILQMQFQDPRGEPSLVMTLGNIVHELLQDSIKYKLSHNKISMEIIIQKLDSLLETYSFSIIICNEEIQYVKELVMKEHAENILYFVNKFVSKSNYGCYTSISGTRRTQPISISNVIDIEENIWSPIYGLKGFLDATVEANVENNKKHIVPLEVKTGKSRSVSYEVQGLIYTLLLNDRYEIPIEFFLLYFTRDKNMTKFPSVLHSIKHILMSRNRMSMNFKHQLQEVFGQAQSRFELPPLLRDSSCDSCFIKESCMVLNKLLEDGTPEESGLVEGEFEILTNHLSQNLANYKEFFTKYNDLITKEESSITCVNKELFLLDGSTRESRSGRCLSGLVVSEVVEHEKTEGAYIYCFSRRRNDNNSQSMLSSQIAANDFVIISDEEGHFCLCQGRVQFINPAKIGISVKRKLLNNRLLDKEKGVTTIQSVVESELEQSSLIATQNLVTYRIDKNDIQQSLSLARFNLLSLFLPAVSPGVDIVDERSKLCRKTKRSDGGNEILRSLLVDNRAPKFRDANDDPVIPYKLSKDTTLNLNQKEAIDKVMRAEDYALILGMPGTGKTTVIAEIIKILVSEGKRVLLTSYTHSAVDNILIKLRNTNISIMRLGMKHKVHPDTQKYVPNYASVKSYNDYLSKINSTSVVATTCLGINDILFTLNEKDFDYVILDEASQISMPVALGPLRYGNRFIMVGDHYQLPPLVKNDAARLGGLEESLFKTFCEKHPESVAELTLQYRMCGDIVTLSNFLIYDNKLKCGNNEVFAQSLELPMPEALSRYRNESANSKQWLEDILEPTRKVVFLNYDNCPDIIEQSEKDNITNHGEAELTLQCVEGMLLSGVPCEDIGVMTLYRAQLRLLKKIFNKNVYDGLEILTADQFQGRDKKCIIISMVRRNSQLNGGALLKELRRVNVAMTRAKSKLIIIGSKSTIGSVPEIKSFVNLLEERNWVYTMCKDALYKYKFPDRSNAIDEARKGCGKRTGAKPITSKSKFVSDKPIIKEILQEYES | – | recruitment relative to wild-type RPA [2]: 80%
4 | dna2-AC (dna2-D357A,E358A,D361A,D362A,E366A), FLAG-His6-tagged (enzyme, S. cerevisiae, UniProt P38859 1-1522, looked up, Dna2, Saccharomyces cerevisiae, with all acidic residues of the second acidic patch (amino acid 355-366) changed to alanine; source: over-expressed in yeast, purified (Ni-NTA, anti-FLAG-M2 resin)) MPGTPQKNKRSASISVSPAKKTEEKEIIQNDSKAILSKQTKRKKKYAFAPINNLNGKNTKVSNASVLKSIAVSQVRNTSRTKDINKAVSKSVKQLPNSQVKPKREMSNLSRHHDFTQDEDGPMEEVIWKYSPLQRDMSDKTTSAAEYSDDYEDVQNPSSTPIVPNRLKTVLSFTNIQVPNADVNQLIQENGNEQVRPKPAEISTRESLRNIDDILDDIEGDLTIKPTITKFSDLPSSPIKAPNVEKKAEVNAEEVDKMDSTGDSNDGDDSLIDILTQKYVEKRKSESQITIQGNTNQKSGAQESCGKNDNTKSRGEIEDHENVDNQAKTGNAFYENEEDSNCQRIKKNEKIEYNSSAAFSAASLIALLNETQTQVEPNTIEQDLDKVEKMVSDDLRIATDSTLSAYALRAKSGAPRDGVVRLVIVSLRSVELPKIGTQKILECIDGKGEQSSVVVRHPWVYLEFEVGDVIHIIEGKNIENKRLLSDDKNPKTQLANDNLLVLNPDVLFSATSVGSSVGCLRRSILQMQFQDPRGEPSLVMTLGNIVHELLQDSIKYKLSHNKISMEIIIQKLDSLLETYSFSIIICNEEIQYVKELVMKEHAENILYFVNKFVSKSNYGCYTSISGTRRTQPISISNVIDIEENIWSPIYGLKGFLDATVEANVENNKKHIVPLEVKTGKSRSVSYEVQGLIYTLLLNDRYEIPIEFFLLYFTRDKNMTKFPSVLHSIKHILMSRNRMSMNFKHQLQEVFGQAQSRFELPPLLRDSSCDSCFIKESCMVLNKLLEDGTPEESGLVEGEFEILTNHLSQNLANYKEFFTKYNDLITKEESSITCVNKELFLLDGSTRESRSGRCLSGLVVSEVVEHEKTEGAYIYCFSRRRNDNNSQSMLSSQIAANDFVIISDEEGHFCLCQGRVQFINPAKIGISVKRKLLNNRLLDKEKGVTTIQSVVESELEQSSLIATQNLVTYRIDKNDIQQSLSLARFNLLSLFLPAVSPGVDIVDERSKLCRKTKRSDGGNEILRSLLVDNRAPKFRDANDDPVIPYKLSKDTTLNLNQKEAIDKVMRAEDYALILGMPGTGKTTVIAEIIKILVSEGKRVLLTSYTHSAVDNILIKLRNTNISIMRLGMKHKVHPDTQKYVPNYASVKSYNDYLSKINSTSVVATTCLGINDILFTLNEKDFDYVILDEASQISMPVALGPLRYGNRFIMVGDHYQLPPLVKNDAARLGGLEESLFKTFCEKHPESVAELTLQYRMCGDIVTLSNFLIYDNKLKCGNNEVFAQSLELPMPEALSRYRNESANSKQWLEDILEPTRKVVFLNYDNCPDIIEQSEKDNITNHGEAELTLQCVEGMLLSGVPCEDIGVMTLYRAQLRLLKKIFNKNVYDGLEILTADQFQGRDKKCIIISMVRRNSQLNGGALLKELRRVNVAMTRAKSKLIIIGSKSTIGSVPEIKSFVNLLEERNWVYTMCKDALYKYKFPDRSNAIDEARKGCGKRTGAKPITSKSKFVSDKPIIKEILQEYES | – | fold less recruitment than wild-type Dna2 (RPA–GFP): ~2 fold
